Consider 5 molecules from patent US20220144940A1 (VIELA BIO, published 2022).

Where “and” joins values, the source holds several entries; their conditions need not be identical. Identical values can stand only once.

Usually EC50 stands for the concentration at which the effect is half-maximal. Broadly, the koff is the rate constant with which the complex falls apart. The term kon denotes the rate constant with which the complex forms. As a reminder, the Kd is the constant that tells how readily two partners part at equilibrium.

For test [1], the target named is T1, human ILT7 (human, UniProt P59901 24-499).
T1 construct: whole, on cells; also called LIRA4; LILRA4
Briefly: flow cytometry (MFI) on cell line stably expressing human ILT7. The method, then: (§1) Binding of afucosylated ILT70137 to ILT7 was determined using cell lines stably expressing human or cynomolgus monkey ILT7. The mean fluorescence intensity of cell-bound antibodies was assessed by flow cytometry. Cells were incubated with increasing concentrations of test antibody ranging from 0.004 to 333.3 nM for 30 minutes at 4° C. After incubation, cells were washed with cold PBS and incubated for 30 minutes at 4° C. with an anti-human-Alexa Fluor 647 antibody. Fluorescent intensity was then determined by FACS and EC₅₀ values were calculated using a non-linear fit equation in GraphPad Prism 6 software.
A general note: Flow cytometry measures light scatter and fluorescence of single cells or particles in a stream.

The target of test [2] is T1, human ILT7. The test can be described thus: cell-based or functional assay.
Test [3] addresses T2, cynomolgus ILT7 (cynomolgus, UniProt P59901 24-499 (human entry)). The test can be described thus: cell-based or functional assay.
Test [4] concerns the target T2, cynomolgus ILT7. Briefly: flow cytometry (MFI) on cell line stably expressing cynomolgus monkey ILT7. The method, then: as §1
Test [5] deals with T3, recombinant human ILT7 protein (human, UniProt P59901 24-446, limits assumed).
T3 construct: Soluble recombinant protein used in ProteOn and BIAcore SPR; also called rILT7; Soluble Recombinant Human ILT7
Briefly: BIAcore SPR, IgG captured on chip, ILT7 protein as analyte, 1:1 model. How it is done:
(§2) BIAcore (surface plasmon resonance) was used to measure the kinetic rate (kₒₙ, koff) constants for the binding of afucosylated IgG₁ ILT70137 to human ILT7 protein using an IgG-capture assay format. The binding of each concentration of a two-fold dilution series of the ILT7 protein was recorded after first capturing IgG onto the sensor chip surface, followed by either the ILT7 protein or instrument buffer. In between each pair of injections, the IgG capture surface was regenerated. Individual association and dissociation rate constants were then calculated from the resulting binding curves using the Biaevaluation software available through the vendor's software employing a 1:1 fitting model, which included a term to correct for mass transport limited binding, should it be detected. […] The individual errors for kₒₙ and koff were low, and the overall fit to the data was good as judged by Chi2 values of ˜1% of the calculated Rₘₐₓ (maximum response).
For orientation: In SPR one partner is held on a chip, and binding of the other changes the refractive index at the surface.

The target in test [6] is T3, recombinant human ILT7 protein. The test can be described thus: BIAcore SPR, IgG captured on chip, ILT7 protein as analyte, koff/kon. The method, then:
as §2

Test [7] has as its target T4, HA-tagged human ILT7 on CT-550 cells (human, UniProt P59901 24-499). The test can be described thus: cell-based or functional assay.
The target of test [8] is T4, HA-tagged human ILT7 on CT-550 cells. The test can be described thus: flow cytometry on human ILT7-expressing cells, left panel 'Human ILT7', table 'Ec50 (nM)'. The method, then: (§3) Binding of anti-ILT7 variants and isotype controls on human and cynomolgus ILT7 was assessed by flow cytometry analysis using CT-550 and cynoILT7 CT-125 cells respectively. CT-125 cells were used as control. Cells were resuspended in Blocking Buffer (PBS supplemented with 10% FBS) at a concentration of 5 million cells per mL and transferred into a round-bottom 96-well plates (BD Falcon™ Clear Microtest Plate, BD Biosciences) at 100 μL per well. Anti-ILT7 variants and control antibodies were added onto the cells for 30 min at 4° C. on a plate shaker. Cells were washed three times with PBS and resuspended in Blocking Buffer (100 μL/well). Human IgG binding on cell surface was detected using a secondary anti-human IgG antibody conjugated to DyLight 649 (1 in 1000 dilution). Cells were incubated in the dark for 30 min at 4° C. on a plate shaker. Cells were washed three times with PBS and surface fluorescence was acquired using LSRII Flow Cytometry System and FACSDiva Software (both from BD Biosciences).

Test [9] shares this target. Briefly: flow cytometry on CT-550 cells. How it is done:
as §3
(§4) In order to determine the binding EC50 of ILT70019, ILT70028, ILT70052, ILT70076, ILT70080, ILT70083, ILT70089, ILT70100, ILT70137, ILT70142 and ILT70144 on cells expressing human ILT7, the candidates were screened for binding on CT-550 cells by flow cytometry. ILT70080 (EC₅₀=0.28 nM), ILT70083 (EC₅₀=0.37 nM), ILT70137 (EC₅₀=0.41 nM), ILT70144, ILT70142, ILT70052, and ILT70100 bound to human ILT7-expressing cells. […] The anti-ILT7 antibodies 7C7 (7C7 is described above in Example 1) and SBI33 (SBI33 refers to the anti-ILT7 antibody ILT7#33 provided in U.S. Published Application No. 2009/0280128) were used as positive controls.

In test [10] the target is T2, cynomolgus ILT7. The test can be described thus: flow cytometry on CynoILT7 CT-125 cells. How it is done:
as §3
(§5) In order to determine the binding EC₅₀ of the variants on cells expressing cynomolgus ILT7, the antibodies were screened for binding on CynoILT7 CT-125 cells by flow cytometry. […] The graph in FIG. 3 represents the mean results from two independent experiments, and the table in FIG. 3 show the average EC₅₀.

In test [11] the target is T2, cynomolgus ILT7. Briefly: flow cytometry on cells expressing cynomolgus ILT7 (CT-125 cells). The method, then:
as §3
The resultant IgG1s were tested to confirm that the sequence changes incorporated into ILT70080 and ILT70083 and had not adversely impacted the binding of the parent antibody to cells expressing human ILT7 (CT-550 cells) or cynomolgus ILT7 (CT-125 cells). The variants were screened for binding by flow cytometry. […]

Test [12] has as its target T2, cynomolgus ILT7. Briefly: flow cytometry on cynomolgus ILT7-expressing cells, right panel 'Cyno ILT7', table 'Ec50 (nM)'. How it is done:
as §3

The target of test [13] is T1, human ILT7. The test can be described thus: FACS on CHO cells expressing recombinant human ILT7; reference antibody of the comparison.
Test [14] addresses T2, cynomolgus ILT7. Briefly: FACS on CHO cells expressing recombinant cyno ILT7; reference antibody of the comparison.
Test [15] addresses T4, HA-tagged human ILT7 on CT-550 cells. The test can be described thus: flow cytometry on CT-550 cells expressing human ILT7, anti-human IgG DyLight 649 detection; mean of two experiments. How it is done:
as §3
In order to determine the binding EC50 of ILT70019, ILT70028, ILT70052, ILT70076, ILT70080, ILT70083, ILT70089, ILT70100, ILT70137, ILT70142 and ILT70144 on cells expressing human ILT7, the candidates were screened for binding on CT-550 cells by flow cytometry. […]

Test [16] concerns the target T2, cynomolgus ILT7. Briefly: FMAT cell binding assay, CHO-K1 cells expressing cynomolgus ILT7, IgG. An excerpt: (§6) This homogeneous assay assessed the binding of crude scFv supernatant samples or purified IgG to Chinese Hamster Ovary (CHO) cells expressing either human or cynomolgus ILT7 in a 384-well (Costar 3655) format. ScFv or Ab binding to cells was detected using a mouse anti-His/goat anti-mouse Alexafluor®-647 labelled antibody (Molecular Probes A21236) mix, or goat anti-human Alexafluor®-647 labelled antibody (Molecular Probes A21445) respectively. Plates were read on the Applied Biosystems Cellular Detection system 8200 reader. The Helium neon excitation laser was focused within 100 μm depth of the bottom of the well, scanning an area 1 mm². The cells settled at the bottom of the well, and upon laser excitation at 633 nm, those beads with fluorophore bound (where the local concentration of fluorophore is relatively high compared to unbound fluorophore) emitted a signal at 650-685 nm that was measured using photomultiplier tube-1 (PMT1). […] The presence of scFv or IgG samples binding to the cells at the bottom of the well caused an increase in Alexafluor-labeled detection antibody within the excitation depth. This was measured as an increase in fluorescence.
(§7) The cells used were CHO-Kl cells expressing either human or cynomolgus ILT7 that were cultured using standard tissue culture techniques. […]
(§8) Species cross-reactivity of anti-ILT7 antibodies was determined using FMAT binding assay. […]

For test [17], the target named is T1, human ILT7. Briefly: FMAT cell binding assay, CHO-K1 cells expressing human ILT7, IgG.
Excerpt: as §6, §7, §8

The target in test [18] is T4, HA-tagged human ILT7 on CT-550 cells. The test can be described thus: flow cytometry on CT-550 cells expressing human ILT7, anti-human IgG DyLight 649 detection; table 'Mean Ec50 (nM)', n = 2. How it is done:
as §3, §4

Test [19] deals with T3, recombinant human ILT7 protein. Briefly: SPR on ProteOn, purified IgG on rILT7.
In test [20] the target is T2, cynomolgus ILT7. The test can be described thus: FACS on CHO cells expressing recombinant cyno ILT7.
Test [21] has as its target T2, cynomolgus ILT7. Briefly: flow cytometry on CynoILT7 CT-125 cells expressing cynomolgus ILT7, anti-human IgG DyLight 649 detection; table 'Mean Ec50 (nM)', n = 2. The method, then: as §3, §5
The target of test [22] is T1, human ILT7. Briefly: FACS on CHO cells expressing recombinant human ILT7.

T3 sequence (P59901 24-446 limits assumed): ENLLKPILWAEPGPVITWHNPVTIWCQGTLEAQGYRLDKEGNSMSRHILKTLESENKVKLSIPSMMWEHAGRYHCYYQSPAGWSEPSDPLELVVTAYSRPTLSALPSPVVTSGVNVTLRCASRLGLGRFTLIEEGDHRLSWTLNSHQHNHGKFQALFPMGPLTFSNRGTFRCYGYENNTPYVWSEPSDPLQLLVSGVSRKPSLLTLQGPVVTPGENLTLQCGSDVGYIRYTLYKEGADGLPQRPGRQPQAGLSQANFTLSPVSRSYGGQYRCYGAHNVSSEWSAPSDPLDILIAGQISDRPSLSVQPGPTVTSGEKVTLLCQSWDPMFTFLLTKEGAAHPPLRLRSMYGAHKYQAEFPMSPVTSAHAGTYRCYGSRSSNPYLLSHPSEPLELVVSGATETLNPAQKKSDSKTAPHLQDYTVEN
T4 sequence (P59901 24-499): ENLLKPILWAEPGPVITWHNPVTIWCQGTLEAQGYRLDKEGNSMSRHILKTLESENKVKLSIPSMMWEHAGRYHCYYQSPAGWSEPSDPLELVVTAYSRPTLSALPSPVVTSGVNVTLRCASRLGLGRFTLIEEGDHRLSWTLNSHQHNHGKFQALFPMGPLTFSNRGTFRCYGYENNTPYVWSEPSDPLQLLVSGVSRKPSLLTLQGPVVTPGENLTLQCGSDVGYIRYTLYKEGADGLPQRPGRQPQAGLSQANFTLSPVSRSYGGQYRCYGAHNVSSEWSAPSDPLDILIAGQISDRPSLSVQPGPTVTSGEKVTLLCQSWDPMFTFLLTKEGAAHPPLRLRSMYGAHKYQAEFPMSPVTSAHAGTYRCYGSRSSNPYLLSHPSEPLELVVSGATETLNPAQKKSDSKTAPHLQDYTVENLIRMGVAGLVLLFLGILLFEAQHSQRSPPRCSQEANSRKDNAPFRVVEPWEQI
T1 sequence (P59901 24-499): as above
T2 sequence (P59901 other isoform, or with tags, fused parts or gaps limits assumed): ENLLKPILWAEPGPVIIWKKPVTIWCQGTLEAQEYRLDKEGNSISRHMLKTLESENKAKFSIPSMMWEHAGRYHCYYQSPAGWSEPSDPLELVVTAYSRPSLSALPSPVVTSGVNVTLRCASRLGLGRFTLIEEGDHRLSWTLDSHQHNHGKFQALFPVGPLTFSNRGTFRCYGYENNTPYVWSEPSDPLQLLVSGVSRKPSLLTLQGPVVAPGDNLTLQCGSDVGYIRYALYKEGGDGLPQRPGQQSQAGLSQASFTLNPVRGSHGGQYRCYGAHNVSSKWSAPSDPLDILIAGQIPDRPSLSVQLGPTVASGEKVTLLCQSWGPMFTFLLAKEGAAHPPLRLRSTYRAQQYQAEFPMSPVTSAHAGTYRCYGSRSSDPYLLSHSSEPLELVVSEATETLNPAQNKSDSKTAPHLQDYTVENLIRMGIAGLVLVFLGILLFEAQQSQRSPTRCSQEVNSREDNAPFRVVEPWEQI

B1: afucosylated IgG1 ILT70137 (antibody, V domains shown)
VH: QVQLQQSGAEVKKPGASVKVSCKASGYTFTSYGISWVRQAPGQGLEWMGWISAYNGNTNYAQKLQGRVTMTTDTSTSTAYMELRSLRSDDTAVYYCARNGLWGWDSDAFDIWGRGTLVTVSS
VL: QSALTQPASVSGSPGQSITISCTGTSSDVGGYNYVSWYQQHPGKAPKLMIYDVSNRPSGVSNRFSGSKSGNTASLTISGLQAEDEADYYCSSYTSSSTVVFGGGTKVTVL
modifications: afucosylated (made as in Example 7: lacks the α-1,6 fucose moiety on the N-glycan at Asn-297 of the heavy chain)
notes: also called afucosylated ILT70137; Afuc IgG1 ILT70137
With B1, the EC50 stood at 0.303 nM in the test with human ILT7 [1] and 2.15 nM in the test with cynomolgus ILT7 [4]. In addition, the “ADCC EC50” value with human ILT7 [2] came to 0.00419 nM; in the test with cynomolgus ILT7 [3], 0.00189 nM. The koff in [5] is 0.0318 s⁻¹. In [5], the kon is 186000 M⁻¹ s⁻¹. Moreover, in [6], the Kd stood at 171 nM.

B2: ILT70080 (antibody, V domains shown)
VH: QVQLVQSGAEVKAPGTSVKVSCKASGDSFRNYAVSWVRQAPGQGLEWMGAMMPSFGTREHSQQFNGRVTLSADESTSTAYLELSSLRYDDTAVYYCAGSRDYNAYHFWTGPPDFWGRGTLVTVSS
VL: SYELTQPPSVSVAPGKTAKISCGGDSVGSTSVHWYQQKPGQAPVMVMFYNSDRPSGIPERFSGSISGNTATLTISRVEAGDEADYYCQVWDTSSDHPEFGGGTKLTVL
notes: also called ITL70080
On to B2, for which the “ADCC EC50” value was 0.008 nM and 0.006 nM with cynomolgus ILT7 [3]; 0.022 nM and 0.013 nM in [7]. The EC50 was 0.3 nM in test [8]; 0.28 nM and 0.213 nM in test [9]; 0.44 nM with cynomolgus ILT7 [10]; 0.547 nM with cynomolgus ILT7 [11]; 0.41 nM with cynomolgus ILT7 [12].

B3: SBI28ch (antibody, V domains shown)
VH: QVQLQQSGAELVKPGASVKMSCKAFGYTFTTYPIEWMKQNHGKSLEWIGNFHPYNDDTKYNEKFKGKAKLTVEKSSSTVYLELSRLTSDDSAVYYCARGDDYGMDYWGQGTSVTVSS
VL: DIVMTQSQKFMSTSVGDRVSITCKASQNVRTAVAWYQQKPGQSPKALIYLASNRHTGVPDRFTGSGSGTDFTLTISNVQSEDLADYFCLQHWNYPFTFGSGTKLEIK
notes: also called chimeric SBI28; ILT7#28
Consider B3, for which the binding result in the test with human ILT7 [13] and in the test with cynomolgus ILT7 [14] was “binds” throughout.

B4: ILT70089 (antibody, V domains shown)
VH: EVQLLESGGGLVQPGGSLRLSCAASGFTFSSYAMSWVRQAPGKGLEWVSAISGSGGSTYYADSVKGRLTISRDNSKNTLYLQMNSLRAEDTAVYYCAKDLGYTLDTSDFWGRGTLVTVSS
VL: SYVLTQPPSASGSPGQGVTISCSGSSSNIGTNTVNWYLHVPGTAPKLLTYTNNQRPSGVQDRFSGSKSDTSASLAISGLQAEDEGDYYCATWDDSLNGLAFGGGTKLTVL
Turning to B4, the binding result (in test [15]; with cynomolgus ILT7 [16]; with human ILT7 [17]) was “binds” each time.

B5: 7C7 (antibody, V domains shown)
VH: EVQLVESGGGVVQPGRSLRLSCAASGFTFSIYPIEWVRQAPGQGLEWIGNFHPYNDDTKYNEKFKGRVTMTTDTSTSTVYMELSSLRSEDTAVYYCTRGDDYGLDYWGQGTLVTVSS
VL: NIQMTQSPSSLSASVGDRVTITCDASQNVRTAVAWYQQKPGKAPKRLIYLASNRHTGVPSRFSGSGSGTDFTLTISSLQSEDFATYYCLQHWNYPFTFGPGTKLEIK
notes: also called anti-ILT7 clone 7C7
Take B5: the values for the EC50 (in [18]; in the test with cynomolgus ILT7 [21]) were 1.3 nM and 8.34 nM, respectively. Further, the “fold KD improvement over SBI28ch” value in test [19] is about 60 fold. In addition, the “fold better EC50 than SBI28ch” value was 14 fold with cynomolgus ILT7 [20] and 2.2 fold with human ILT7 [22].
